Positions count from the first letter of the chain named. Blank lines part the entries; values can stand above or below the binder they belong to.
Experiments:
[1] = molecular target: T1, membrane human CD89 on ex vivo primary human neutrophilic granulocytes or monocytic U937 cells (human, UniProt P24071 22-287); test: cell-based or functional assay
[2] = molecular target: T1, membrane human CD89 on ex vivo primary …; test: cell-based or functional assay; remark: listed apart in the source
[3] = molecular target: T2, recombinant C-terminal polyhistidine-tagged human (extracellular) CD89 (Sino Biological) (human, UniProt P24071 22-227); test: ELISA, antibody before serum IgA on coated rhuCD89; IgA detected
T2 construct: extracellular domain; bought protein; also called rhuCD89; soluble monomeric rhuCD89
Procedure: After extensive washing with PBS/0.05% Tween 20, plates were blocked with PBS/0.05% Tween 20/1% BSA (Roche) for 1 hour at RT. Subsequently, plates were incubated with 25 µL titrated (in block buffer) purified mouse anti-human CD89 antibody/well for 30 minutes at RT. […] After extensive washing in PBS/0.05% Tween 20, 1:10,000 diluted HRP-conjugated streptavidin (Jackson ImmunoResearch) was added, and incubated for 1 hour at RT, followed by a ready-to-use solution of TMB substrate (Invitrogen) for colorimetric detection.

[4] = molecular target: T3, membrane-bound full-length human CD89 on HEK293F cells (human, UniProt P24071 22-287); test: FACS on HEK293F-huCD89
T3 construct: 2 or transient transfectants; also called membrane human CD89; human FcaRI
Procedure: Then, 10 µL/tube (i.e., 0.1 x 10⁶ cells) of these cells were incubated with 100 µL titrated (in PBS/BSA/NaN₃) purified mouse anti-human CD89 antibody/tube for 30 minutes at 4° C. […] After extensive washing in PBS/BSA/NaN₃, cells were subsequently incubated with 1:200 diluted PE-conjugated goat anti-mouse IgG Fcy-specific antibodies (Jackson ImmunoResearch) for 30 minutes at 4° C. After extensive washing in PBS/BSA/NaN₃, cells were fixed in 2% formaldehyde in PBS/BSA/NaN₃ for 30 minutes at 4° C.

[5] = molecular target: T3, membrane-bound full-length human CD89 …; test: FACS, antibody before serum IgA on HEK293F-huCD89; IgA detected
Procedure: Then, 10 µL/tube (i.e., 0.1 x 10⁶ cells) of these cells were incubated with 50 µL titrated (in PBS/BSA/NaN₃) purified mouse anti-human CD89 antibody/tube for 30 minutes at 4° C. […] After extensive washing in PBS/BSA/NaN₃, 1:200 diluted PE-conjugated streptavidin (Jackson ImmunoResearch) was added, and incubated for 30 minutes at 4° C. After extensive washing in PBS/BSA/NaN₃, cells were fixed in 2% formaldehyde in PBS/BSA/NaN₃ for 30 minutes at 4° C.

[6] = molecular target: T3, membrane-bound full-length human CD89 …; test: FACS HEK293F-huCD89, 10 ug/mL; competitor PE-MIP8a
Procedure: (§1) Then, 10 µL/tube (i.e., 0.1 × 10⁶ cells) of these cells were incubated with or without 100 µL purified mouse anti-human CD89 antibody at 10 µg/mL (in PBS/BSA/NaN₃) for 30 minutes at 4° C. […] After extensive washing in PBS/BSA/NaN₃, cells were fixed in 2% formaldehyde in PBS/BSA/NaN₃ for 30 minutes at 4° C.

[7] = molecular target: T3, membrane-bound full-length human CD89 …; test: FACS, unlabelled antibody before MIP8a-PE on HEK293F-huCD89
[8] = molecular target: T3, membrane-bound full-length human CD89 …; test: FACS, unlabelled antibody before A3-PE on HEK293F-huCD89
[9] = molecular target: T3, membrane-bound full-length human CD89 …; test: FACS, antibody before secretory IgA on HEK293F-huCD89; IgA detected
Procedure: Then, 10 µL/tube (i.e., 0.1 x 10⁶ cells) of these cells were incubated with or without 50 µL titrated (in PBS/BSA/NaN₃) purified mouse anti-human CD89 antibody/tube for 30 minutes at 4° C. […] After extensive washing in PBS/BSA/NaN₃, 1:200 diluted PE-conjugated streptavidin (Jackson ImmunoResearch) was added, and incubated for 30 minutes at 4° C. After extensive washing in PBS/BSA/NaN₃, cells were fixed in 4% formaldehyde in PBS/BSA/NaN₃ for 30 minutes at 4° C.

[10] = molecular target: T2, recombinant C-terminal …; test: ELISA on coated rhuCD89
Procedure: After extensive washing with PBS/0.05% Tween 20, plates were blocked with PBS/0.05% Tween 20/1% BSA (Roche) for 1 hour at RT. Subsequently, plates were incubated with 50 µL titrated (in block buffer) purified mouse anti-human CD89 antibody/well for 1 hour at RT. […] After extensive washing in PBS/0.05% Tween 20, binding of antibodies on rhuCD89 was determined with 1:5,000 diluted horseradish peroxidase (HRP)-conjugated goat anti-mouse IgG Fcy-specific antibodies (Jackson ImmunoResearch) for 1 hour at RT, followed by a ready-to-use solution of TMB substrate (Invitrogen) for colorimetric detection.

[11] = molecular target: T3, membrane-bound full-length human CD89 …; test: FACS HEK293F-huCD89, 10 ug/mL; competitor PE-A59
Procedure: as §1

[12] = molecular target: T4, chimeric human/cynomolgus monkey CD89-III on HEK293F cells (human/cynomolgus chimera, UniProt P24071 22-287); test: FACS, 10 µg/mL, transiently transfected HEK293F
T4 construct: also called dGly72 - Gly96 human EC1-CD89; III (72-96)
T4 chain: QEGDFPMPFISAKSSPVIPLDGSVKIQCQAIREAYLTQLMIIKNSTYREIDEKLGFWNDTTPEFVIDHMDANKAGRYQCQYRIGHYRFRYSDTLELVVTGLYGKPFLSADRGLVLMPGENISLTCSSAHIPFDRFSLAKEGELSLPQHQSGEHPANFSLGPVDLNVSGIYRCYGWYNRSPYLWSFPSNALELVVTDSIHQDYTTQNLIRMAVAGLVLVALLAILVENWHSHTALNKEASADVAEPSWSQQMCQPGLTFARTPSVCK

[13] = molecular target: T5, chimeric human/cynomolgus monkey CD89-II on HEK293F cells (human/cynomolgus chimera, UniProt P24071 22-287); test: FACS, 10 µg/mL, transiently transfected HEK293F
T5 construct: also called dIle47 - Ile71 human EC1-CD89; II (47-71)
T5 chain: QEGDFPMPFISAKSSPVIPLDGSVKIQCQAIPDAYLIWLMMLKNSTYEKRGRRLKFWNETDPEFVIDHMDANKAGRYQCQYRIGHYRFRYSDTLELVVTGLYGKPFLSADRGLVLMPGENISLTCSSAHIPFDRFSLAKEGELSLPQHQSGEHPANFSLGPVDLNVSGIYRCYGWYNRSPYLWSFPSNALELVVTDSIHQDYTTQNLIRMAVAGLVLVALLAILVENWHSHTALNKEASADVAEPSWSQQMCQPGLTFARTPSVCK

[14] = molecular target: T6, chimeric human/cynomolgus monkey CD89-I on HEK293F cells (human/cynomolgus chimera, UniProt P24071 22-287); test: FACS, 10 µg/mL, transiently transfected HEK293F
T6 construct: also called dGln22 - Lys46 human EC1-CD89; I (22-46)
T6 chain: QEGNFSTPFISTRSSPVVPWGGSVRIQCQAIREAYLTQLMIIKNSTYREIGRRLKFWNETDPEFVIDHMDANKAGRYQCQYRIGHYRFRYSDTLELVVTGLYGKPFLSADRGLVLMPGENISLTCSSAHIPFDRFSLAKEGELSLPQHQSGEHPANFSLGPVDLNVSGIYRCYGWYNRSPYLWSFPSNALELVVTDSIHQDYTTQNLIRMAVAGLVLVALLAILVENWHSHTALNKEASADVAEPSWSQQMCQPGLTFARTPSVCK

[15] = molecular target: T7, chimeric human/cynomolgus monkey CD89-IV on HEK293F cells (human/cynomolgus chimera, UniProt P24071 22-287); test: FACS, 10 µg/mL, transiently transfected HEK293F
T7 construct: also called dArg97 - Gly121 human EC1-CD89
T7 chain: T4 chain with D51G, E52R, K53R, G55K, D59E, T61D, Q78R, Q80R, H85L, Y86S

[16] = molecular target: T3, membrane-bound full-length human CD89 …; test: FACS HEK293F-huCD89, 10 ug/mL; competitor PE-A3
Procedure: as §1

[17] = molecular target: T8, chimeric bovine EC1-Fcgamma2R/human EC2-CD89 on HEK293F cells (bovine/human chimera); test: FACS, transiently transfected HEK293F
T8 chain: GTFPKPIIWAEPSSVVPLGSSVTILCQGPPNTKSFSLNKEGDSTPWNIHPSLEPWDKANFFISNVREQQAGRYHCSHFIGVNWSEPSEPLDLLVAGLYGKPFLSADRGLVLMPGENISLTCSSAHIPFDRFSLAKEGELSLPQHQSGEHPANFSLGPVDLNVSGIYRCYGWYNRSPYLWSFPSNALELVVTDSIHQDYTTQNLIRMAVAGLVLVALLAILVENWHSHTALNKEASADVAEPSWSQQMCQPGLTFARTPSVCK
Procedure: To this end, transient transfected HEK293F cells were put at 10 × 10⁶ cells/mL in ice-chilled phosphate-buffered saline containing 0.1% BSA (Sigma)/0.05% NaN₃ (PBS/BSA/NaN₃) supplemented with 50 µg/mL human IgGs (blocking Fcy receptors; Sigma) for 10 minutes at 4° C. Then, 10 µL/tube (i.e., 0.1 × 10⁶ cells) of these cells were incubated with or without 100 µL purified mouse anti-human CD89 antibody at 10 µg/mL (in PBS/BSA/NaN₃) for 30 minutes at 4° C. […] After extensive washing in PBS/BSA/NaN₃, cells were subsequently incubated with 1:200 diluted PE-conjugated goat anti-mouse IgG Fcy-specific antibodies (Jackson ImmunoResearch) for 30 minutes at 4° C. After extensive washing in PBS/BSA/NaN₃, cells were fixed in 2% formaldehyde in PBS/BSA/NaN₃ for 30 minutes at 4° C.

[18] = molecular target: T9, membrane full-length cynomolgus monkey CD89 on HEK293F cells (cynomolgus monkey); test: FACS, 10 µg/mL, transiently transfected HEK293F
T9 construct: also called cynoCD89; cynomolgus EC1-CD89
T9 chain: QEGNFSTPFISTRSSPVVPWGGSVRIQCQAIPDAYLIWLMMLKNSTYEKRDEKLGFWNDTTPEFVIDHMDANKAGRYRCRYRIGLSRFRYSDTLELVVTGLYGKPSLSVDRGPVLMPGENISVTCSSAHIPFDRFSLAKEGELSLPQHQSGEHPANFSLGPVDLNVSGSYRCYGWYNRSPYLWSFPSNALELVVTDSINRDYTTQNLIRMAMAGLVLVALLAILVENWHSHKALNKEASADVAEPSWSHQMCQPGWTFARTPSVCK
Procedure: (§2) To this end, transient transfected HEK293F cells were put at 10 x 10⁶ cells/mL in ice-chilled phosphate-buffered saline containing 0.1% BSA (Sigma)/0.05% NaN₃ (PBS/BSA/NaN₃) supplemented with 50 µg/mL human IgGs (blocking FcY receptors; Sigma) for 10 minutes at 4° C. Then, 10 µL/tube (i.e., 0.1 × 10⁶ cells) of these cells were incubated with or without 100 µL purified mouse anti-human CD89 antibody at 10 µg/mL (in PBS/BSA/NaN₃) for 30 minutes at 4° C. […] After extensive washing in PBS/BSA/NaN₃, cells were subsequently incubated with 1:200 diluted PE-conjugated goat anti-mouse IgG Fcy-specific antibodies (Jackson ImmunoResearch) for 30 minutes at 4° C. After extensive washing in PBS/BSA/NaN₃, cells were fixed in 2% formaldehyde in PBS/BSA/NaN₃ for 30 minutes at 4° C.

[19] = molecular target: T2, recombinant C-terminal …; test: ELISA, coated rhuCD89
[20] = molecular target: T3, membrane-bound full-length human CD89 …; test: FACS HEK293F-huCD89
Procedure: After extensive washing in PBS/BSA/NaN₃, cells were subsequently incubated with 1:200 diluted PE-conjugated goat anti-human IgG Fcy-specific antibodies (Jackson ImmunoResearch) for 30 minutes at 4° C. After extensive washing in PBS/BSA/NaN₃, cells were fixed in 2% formaldehyde in PBS/BSA/NaN₃ for 30 minutes at 4° C.

[21] = molecular target: T10, chimeric human/cynomolgus monkey CD89-hotspots on HEK293F cells (human/cynomolgus chimera, UniProt P24071 22-287); test: FACS, transiently transfected HEK293F
T10 construct: also called dThr58, Gln59; dArg73, Arg74, Lys76
T10 chain: T4 chain with T37I, Q38W, D51G, D59E, T61D, H85L, Y86S

[22] = molecular target: T10, chimeric human/cynomolgus monkey …; test: FACS, 10 µg/mL, transiently transfected HEK293F
[23] = molecular target: T1, membrane human CD89 on ex vivo primary …; test: cell-based or functional assay; remark: listed apart in the source
[24] = molecular target: T9, membrane full-length cynomolgus monkey …; test: FACS, transiently transfected HEK293F
Procedure: as §2

IC50 (read off the bars), binding of granulocytes to plate-bound serum IgA [Donor 2] [1]: ~0.2 µg/mL | IC50 (read off the bars), binding of granulocytes to plate-bound serum IgA [Donor 1] [2]: ~0.9 µg/mL | IC50 (read off the curve) [3]: ~0.03 µg/mL | EC50 (read off the curve) [4]: ~0.2 µg/mL | IC50 (read off the curve) [5]: ~0.2 µg/mL | % blocking of PE-MIP8a binding [6]: > 90% | IC50 (read off the curve) [7]: ~0.4 µg/mL | IC50 (read off the curve) [8]: ~0.4 µg/mL | IC50 (read off the curve) [9]: ~0.4 µg/mL | EC50 (read off the curve) [10]: ~0.01 µg/mL
B1: CD89/IgA blocking mouse anti-human CD89-specific antibody 9H7 (antibody, V domains shown)
VH: QIQLVQSGPELKKPGETVKISCKASGYTFKNYGMNWVKQAPGKGLKWMAWINTYTGEPTHTDDFKGRFVFSLETSASTAYLQINNLKNEDTATYFCARWGLGTTEEAARDYWGQGTTLTVSS
VL: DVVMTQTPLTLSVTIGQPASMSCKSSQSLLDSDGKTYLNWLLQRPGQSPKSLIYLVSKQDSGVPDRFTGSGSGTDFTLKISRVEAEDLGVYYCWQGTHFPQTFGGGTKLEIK

% blocking of PE-A59 binding [11]: < 25% | binding result [12]: binds | binding result [13]: binds | binding result [14]: binds | binding result [15]: binds | % blocking of PE-A3 binding [16]: < 25% | binding result [17]: no binding (tested: 10 µg/mL) | % blocking of PE-MIP8a binding [6]: < 25% | binding result [18]: binds | EC50 [19]: 0.119 µg/mL | EC50 [20]: 1.62 µg/mL | binding result [21]: no binding (tested: 10 µg/mL)
B2: CD89/IgA blocking mouse anti-human CD89-specific antibody 16D6 (antibody, V domains shown)
VH: QVQLQQSGAELMKPGASVKISCKATGYTFSTYWIEWVKQRPGHGLEWIGEILPGSGSANYNEKFKGKATFTADTSSNTAYMQLSSLTFEDSAVYYCAKGFGSPYYYAMDYWGQGTSVTVSS
VL: EIVLTQSPALMAASPGEKVTITCSVSSSISSSNLHWYQQKSETSPKPWIYGTSKLASGVPVRFSGSGSGTSYSLTISNMEAEDAATYYCQQWSSFPLTFGGGTKLEIK
notes: also called 16D16 [sic]

IC50 (read off the bars), binding of granulocytes to plate-bound serum IgA [Donor 2] [1]: ~0.1 µg/mL | binding result [12]: binds | binding result [22]: binds | binding result [13]: binds | binding result [14]: binds | binding result [17]: no binding (tested: 10 µg/mL) | IC50 (read off the curve) [5]: ~0.2 µg/mL | % blocking of PE-MIP8a binding [6]: > 90% | IC50 (read off the bars), binding of granulocytes to plate-bound serum IgA [Donor 3] [23]: ~1 µg/mL | IC50 (read off the curve) [8]: ~0.3 µg/mL | binding result [24]: no binding (tested: 10 µg/mL) | IC50 (read off the curve) [9]: ~0.3 µg/mL | EC50 (read off the curve) [10]: ~0.008 µg/mL
B3: CD89/IgA blocking mouse anti-human CD89-specific antibody 26D6 (antibody, V domains shown)
VH: QIQLVQSGPELKKPGETVKISCKASGYTLTKYGMNWVKQAPGKGLKWMGWINTYTGEPTYADDFKGRFAFSLETSASTAYLQINNLKNEDTATYFCASLPLFGRDSFAYWGQGTLVTVSA
VL: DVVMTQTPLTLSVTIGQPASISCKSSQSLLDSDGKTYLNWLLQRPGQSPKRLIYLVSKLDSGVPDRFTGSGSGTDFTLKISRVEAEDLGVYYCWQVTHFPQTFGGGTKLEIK
notes: also called 26B6 [sic]
